Columns and labels:
[1] = molecular target: malondialdehyde modified LDL (UniProt P04114); experiment: plate binding ELISA on coated MDA-LDL, HEK293 supernatant; fold vs (-) control pCTM395 supernatant
C3 convertase, C3bBb = C3 convertase, C3bBb (UniProt P01024); experiment: cell-based or functional assay
C3d ligand = C3d ligand (UniProt P01024); experiment: plate binding assay on C3d, purified protein; reference
C3b protein [2] = molecular target: C3b protein (UniProt P01024); experiment: plate binding ELISA on coated C3b, purified protein; reference
C3b protein, sequence (P01024 23-667 limits assumed, chain 1 of 2): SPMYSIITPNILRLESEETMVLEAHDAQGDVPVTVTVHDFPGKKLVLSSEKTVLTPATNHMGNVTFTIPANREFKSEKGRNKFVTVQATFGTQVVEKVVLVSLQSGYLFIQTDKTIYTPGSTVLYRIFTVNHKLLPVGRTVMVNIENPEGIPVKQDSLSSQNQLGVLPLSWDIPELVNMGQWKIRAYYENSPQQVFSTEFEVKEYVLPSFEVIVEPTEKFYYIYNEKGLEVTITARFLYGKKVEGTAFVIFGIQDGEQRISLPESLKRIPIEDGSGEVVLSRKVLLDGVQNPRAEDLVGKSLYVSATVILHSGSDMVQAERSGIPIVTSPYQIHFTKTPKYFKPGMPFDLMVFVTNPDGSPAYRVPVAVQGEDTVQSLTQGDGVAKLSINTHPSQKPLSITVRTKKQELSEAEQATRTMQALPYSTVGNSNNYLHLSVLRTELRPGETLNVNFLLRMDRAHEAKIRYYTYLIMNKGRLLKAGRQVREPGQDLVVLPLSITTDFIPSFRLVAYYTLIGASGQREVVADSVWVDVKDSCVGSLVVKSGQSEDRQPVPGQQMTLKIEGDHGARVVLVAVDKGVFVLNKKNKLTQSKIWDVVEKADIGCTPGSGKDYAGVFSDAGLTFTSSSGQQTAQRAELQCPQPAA
C3b protein, sequence (P01024 749-1663 limits assumed, chain 2 of 2): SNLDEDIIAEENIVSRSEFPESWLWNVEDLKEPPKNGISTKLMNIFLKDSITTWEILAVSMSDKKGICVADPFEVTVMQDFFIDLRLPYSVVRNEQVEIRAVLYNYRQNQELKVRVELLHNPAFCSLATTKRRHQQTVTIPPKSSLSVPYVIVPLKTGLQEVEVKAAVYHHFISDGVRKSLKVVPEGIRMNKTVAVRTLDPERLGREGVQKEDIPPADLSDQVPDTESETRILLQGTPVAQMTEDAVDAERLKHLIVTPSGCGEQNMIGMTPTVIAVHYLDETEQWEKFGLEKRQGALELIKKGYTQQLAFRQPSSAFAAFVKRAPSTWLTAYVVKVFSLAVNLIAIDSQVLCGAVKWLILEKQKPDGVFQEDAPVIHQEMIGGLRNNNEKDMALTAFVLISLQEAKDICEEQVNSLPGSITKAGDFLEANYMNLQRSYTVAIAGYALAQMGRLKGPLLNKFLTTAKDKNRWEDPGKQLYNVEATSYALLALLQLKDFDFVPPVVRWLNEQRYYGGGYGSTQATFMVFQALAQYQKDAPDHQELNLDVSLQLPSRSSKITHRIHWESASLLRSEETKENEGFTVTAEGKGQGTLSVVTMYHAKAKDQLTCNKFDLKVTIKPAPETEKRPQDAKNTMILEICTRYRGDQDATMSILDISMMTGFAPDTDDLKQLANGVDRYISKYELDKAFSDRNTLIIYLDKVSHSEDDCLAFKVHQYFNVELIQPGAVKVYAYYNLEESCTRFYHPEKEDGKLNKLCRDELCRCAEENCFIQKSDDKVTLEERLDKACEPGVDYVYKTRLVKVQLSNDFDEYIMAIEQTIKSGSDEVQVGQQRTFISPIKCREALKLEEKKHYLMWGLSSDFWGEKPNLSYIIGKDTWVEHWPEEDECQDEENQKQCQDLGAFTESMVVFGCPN

CRP = molecular target: T1, CRP (UniProt P02741); experiment: plate binding ELISA on coated CRP, purified protein; reference
T1 sequence (looked up): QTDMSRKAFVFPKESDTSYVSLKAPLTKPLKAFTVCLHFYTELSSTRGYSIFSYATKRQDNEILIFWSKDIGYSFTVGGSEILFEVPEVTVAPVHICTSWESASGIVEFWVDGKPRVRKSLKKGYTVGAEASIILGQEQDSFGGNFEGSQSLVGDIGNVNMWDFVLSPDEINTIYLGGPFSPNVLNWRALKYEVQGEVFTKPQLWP

[3] = molecular target: malondialdehyde modified LDL (UniProt P04114); experiment: plate binding ELISA on coated MDA-LDL, purified protein; reference
C3b protein [4] = molecular target: C3b protein (UniProt P01024); experiment: plate binding ELISA on coated C3b, HEK293 supernatant 25 ng/mL; fold vs (-) control pCTM395 supernatant
[5] = molecular target: malondialdehyde modified LDL (UniProt P04114); experiment: plate binding ELISA on coated MDA-LDL; fold vs (-) control pCTM395 supernatant

CFHT.0 purified recombinant protein (pCTM134), sequence (P08603 other isoform, or with tags, fused parts or gaps limits assumed): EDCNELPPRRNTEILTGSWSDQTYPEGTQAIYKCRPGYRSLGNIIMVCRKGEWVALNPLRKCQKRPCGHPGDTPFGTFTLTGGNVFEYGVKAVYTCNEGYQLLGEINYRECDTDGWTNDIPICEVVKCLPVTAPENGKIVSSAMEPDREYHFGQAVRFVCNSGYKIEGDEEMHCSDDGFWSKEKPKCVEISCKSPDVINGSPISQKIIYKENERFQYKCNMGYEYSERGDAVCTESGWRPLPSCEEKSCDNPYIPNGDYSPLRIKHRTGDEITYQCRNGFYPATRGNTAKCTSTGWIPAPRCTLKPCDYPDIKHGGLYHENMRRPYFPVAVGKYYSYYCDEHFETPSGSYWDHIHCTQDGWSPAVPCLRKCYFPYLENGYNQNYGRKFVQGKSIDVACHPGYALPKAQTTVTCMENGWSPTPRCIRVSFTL
C3d ligand, sequence (P01024 1002-1303 limits assumed): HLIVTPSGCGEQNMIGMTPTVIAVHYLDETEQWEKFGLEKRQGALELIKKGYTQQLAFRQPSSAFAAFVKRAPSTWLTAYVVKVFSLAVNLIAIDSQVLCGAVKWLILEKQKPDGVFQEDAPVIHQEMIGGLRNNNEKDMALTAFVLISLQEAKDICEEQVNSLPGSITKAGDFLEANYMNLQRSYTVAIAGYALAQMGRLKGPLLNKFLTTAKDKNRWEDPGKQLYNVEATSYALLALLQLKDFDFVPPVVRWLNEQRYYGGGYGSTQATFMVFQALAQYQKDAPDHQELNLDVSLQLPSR
C3 convertase, C3bBb, sequence (P01024 23-1663 limits assumed, chain 1 of 2): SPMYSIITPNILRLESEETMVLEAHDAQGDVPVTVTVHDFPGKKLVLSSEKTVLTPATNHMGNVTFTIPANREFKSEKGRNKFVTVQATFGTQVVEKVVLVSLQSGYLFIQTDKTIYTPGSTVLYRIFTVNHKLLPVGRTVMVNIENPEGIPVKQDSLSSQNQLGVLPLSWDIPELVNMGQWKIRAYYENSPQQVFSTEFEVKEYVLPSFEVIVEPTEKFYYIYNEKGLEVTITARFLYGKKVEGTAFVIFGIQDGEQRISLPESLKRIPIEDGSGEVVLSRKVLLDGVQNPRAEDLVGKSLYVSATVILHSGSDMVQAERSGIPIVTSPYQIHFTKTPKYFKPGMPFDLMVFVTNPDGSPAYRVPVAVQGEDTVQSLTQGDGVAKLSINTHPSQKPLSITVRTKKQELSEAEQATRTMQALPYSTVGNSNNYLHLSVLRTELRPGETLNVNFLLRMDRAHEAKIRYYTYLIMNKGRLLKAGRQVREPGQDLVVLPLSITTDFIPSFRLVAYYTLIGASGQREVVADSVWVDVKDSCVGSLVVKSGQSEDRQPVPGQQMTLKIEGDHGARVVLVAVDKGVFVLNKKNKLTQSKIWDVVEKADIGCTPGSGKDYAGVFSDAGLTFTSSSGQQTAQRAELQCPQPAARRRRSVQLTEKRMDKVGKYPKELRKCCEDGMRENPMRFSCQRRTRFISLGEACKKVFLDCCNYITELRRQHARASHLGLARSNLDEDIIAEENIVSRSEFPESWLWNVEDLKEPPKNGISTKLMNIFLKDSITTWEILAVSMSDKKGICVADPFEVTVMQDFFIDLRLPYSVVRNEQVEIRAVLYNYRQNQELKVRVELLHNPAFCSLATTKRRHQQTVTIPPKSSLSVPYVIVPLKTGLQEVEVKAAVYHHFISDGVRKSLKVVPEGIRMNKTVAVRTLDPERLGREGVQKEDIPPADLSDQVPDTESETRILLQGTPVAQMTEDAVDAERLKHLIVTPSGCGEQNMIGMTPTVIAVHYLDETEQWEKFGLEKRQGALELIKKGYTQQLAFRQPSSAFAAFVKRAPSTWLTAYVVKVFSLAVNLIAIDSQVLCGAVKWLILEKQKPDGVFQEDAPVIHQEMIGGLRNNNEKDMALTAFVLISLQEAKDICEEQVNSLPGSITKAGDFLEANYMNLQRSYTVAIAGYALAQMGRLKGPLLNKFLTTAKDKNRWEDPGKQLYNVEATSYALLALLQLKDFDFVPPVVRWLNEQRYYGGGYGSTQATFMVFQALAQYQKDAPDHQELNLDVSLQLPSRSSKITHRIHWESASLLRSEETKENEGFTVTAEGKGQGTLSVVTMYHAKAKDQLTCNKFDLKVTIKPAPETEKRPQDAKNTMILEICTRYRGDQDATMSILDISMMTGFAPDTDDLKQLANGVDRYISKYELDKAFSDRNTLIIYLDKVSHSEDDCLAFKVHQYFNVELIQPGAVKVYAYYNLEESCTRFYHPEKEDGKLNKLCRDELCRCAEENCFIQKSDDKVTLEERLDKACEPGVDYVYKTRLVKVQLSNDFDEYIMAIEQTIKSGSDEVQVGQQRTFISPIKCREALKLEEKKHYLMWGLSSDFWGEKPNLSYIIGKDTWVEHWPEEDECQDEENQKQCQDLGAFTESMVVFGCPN
C3 convertase, C3bBb, sequence (P00751 260-764 limits assumed, chain 2 of 2, further chain): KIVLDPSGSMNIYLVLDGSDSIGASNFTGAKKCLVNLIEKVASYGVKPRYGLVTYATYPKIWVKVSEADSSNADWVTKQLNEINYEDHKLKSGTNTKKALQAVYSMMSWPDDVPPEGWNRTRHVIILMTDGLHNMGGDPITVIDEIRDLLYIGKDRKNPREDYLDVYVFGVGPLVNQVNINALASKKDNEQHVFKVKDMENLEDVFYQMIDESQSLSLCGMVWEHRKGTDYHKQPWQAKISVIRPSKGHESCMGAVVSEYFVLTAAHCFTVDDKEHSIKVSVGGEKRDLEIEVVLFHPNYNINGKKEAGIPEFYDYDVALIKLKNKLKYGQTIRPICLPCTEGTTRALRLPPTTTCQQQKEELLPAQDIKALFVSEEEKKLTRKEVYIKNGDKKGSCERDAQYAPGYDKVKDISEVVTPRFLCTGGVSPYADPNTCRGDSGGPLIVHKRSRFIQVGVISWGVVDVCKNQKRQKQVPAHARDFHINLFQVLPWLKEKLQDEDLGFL
His-CFHT.0 (pCTM447), sequence (P08603 other isoform, or with tags, fused parts or gaps limits assumed): as the sequence (P08603 other isoform, or with tags, fused parts or gaps limits assumed) above
rCFHT-I62 Protein, sequence (P08603 other isoform, or with tags, fused parts or gaps limits assumed): as above
CFHT.0 (pCTM297), sequence (P08603 other isoform, or with tags, fused parts or gaps limits assumed): as above

Substance: CFHT.0 (pCTM297) (from UniProt P08603 19-445)
- Fold Activity at Highest Dose (Relative to Control) [1]: 1.5 fold

Substance: CFHT.0 purified recombinant protein (pCTM134) (from UniProt P08603 19-445)
- IC50, decay acceleration activity (DAA) assay (C3 convertase, C3bBb): 1.95 nM
- Fold Activity (Compared to CFHT-I62) (C3d ligand): 1 fold
- Fold Activity (Compared to CFHT-I62) (C3b protein [2]): 1 fold
- Fold Activity (Compared to CFHT-I62) (CRP): 1 fold
- Fold Activity (Compared to CFHT-I62) [3]: 1 fold

Substance: His-CFHT.0 (pCTM447) (from UniProt P08603 19-445)
- Fold Activity at Highest Dose (Relative to Control) [1]: 1.4 fold
- Fold Activity at Highest Dose (Relative to Control) (C3b protein [4]): 1.5 fold

Substance: rCFHT-I62 Protein (from UniProt P08603 19-445)
- Fold Activity at Highest Dose (Relative to Control) [5]: 52 fold

From patent US20240358855A1
